Data published in PMC10673952, “Stochastic chain termination in bacterial pilus assembly” (Nature Communications, 2023).

B1: FimC (natural protein, E. coli, UniProt P31697 37-241, looked up)
chain: GVALGATRVIYPAGQKQEQLAVTNNDENSTYLIQSWVENADGVKDGRFIVTPPLFAMKGKKENTLRILDATNNQLPQDRESLFWMNVKAIPSMDKSKLTENTLQLAIISRIKLYYRPAKLALPPDQAAEKLRFRRSANSLTLINPTPYYLTVTELNAGTRVLENALVPPMGESTVKLPSDAGSNITYRTINDYGALTPKMTGVME
notes: also called periplasmic chaperone FimC; untagged FimC; source: in FimCF and FimCG co-expressed in the periplasm of E. coli HM125
B2: FimCHis (FimC with C-terminal hexahistidine tag) (natural protein, E. coli, UniProt P31697 37-241, looked up)
chain: GVALGATRVIYPAGQKQEQLAVTNNDENSTYLIQSWVENADGVKDGRFIVTPPLFAMKGKKENTLRILDATNNQLPQDRESLFWMNVKAIPSMDKSKLTENTLQLAIISRIKLYYRPAKLALPPDQAAEKLRFRRSANSLTLINPTPYYLTVTELNAGTRVLENALVPPMGESTVKLPSDAGSNITYRTINDYGALTPKMTGVME
B4: FimI (natural protein, E. coli W3110, UniProt P39264 20-179, looked up)
chain: GNKWNTTLPGGNMQFQGVIIAETCRIEAGDKQMTVNMGQISSNRFHAVGEDSAPVPFVIHLRECSTVVSERVGVAFHGVADGKNPDVLSVGEGPGIATNIGVALFDDEGNLVPINRPPANWKRLYSGSTSLHFIAKYRATGRRVTGGIANAQAWFSLTYQ
notes: also called assembly terminator subunit FimI
B6: FimA (natural protein, E. coli, UniProt P04128 24-182, looked up)
chain: AATTVNGGTVHFKGEVVNAACAVDAGSVDQTVQLGQVRTASLAQEGATSSAVGFNIQLNDCDTNVASKAAVAFLGTAIDAGHTNVLALQSSAAGSATNVGVQILDRTGAALTLDGATFSSETTLNNGTNTIPFQARYFATGAATPGAANADATFKVQYQ
notes: also called main structural pilus subunit FimA; FimA wild-type

Legend:
[1] = biological target: B4; assay: cell-based or functional assay
[2] = biological target: B6; assay: cell-based or functional assay
[3] = biological target: B6; assay: chaperone exchange kinetics followed by analytical cation exchange chromatography; 4 μM complex incubated with a 9-fold molar excess (36 μM) of the differently tagged FimC (untagged FimC against FimCHis complexes, FimCHis against FimCA and FimCAA); 20 mM MES-NaOH pH 6.0, 37 °C; single-exponential fit; settings: both partners purified
[4] = biological target: B4; assay: as above; settings: both partners purified
[5] = biological target: T1, FimFt (E. coli); assay: as above; settings: both partners purified
T1 chain: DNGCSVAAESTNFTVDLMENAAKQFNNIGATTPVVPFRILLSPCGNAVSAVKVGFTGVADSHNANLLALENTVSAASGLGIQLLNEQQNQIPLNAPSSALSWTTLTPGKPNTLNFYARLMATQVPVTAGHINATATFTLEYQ

[6] = biological target: T2, FimF-FimGt (the two subunits of the ternary FimCHisFG complex) (E. coli, UniProt P08189 21-176; P08190 24-167); assay: as above; settings: both partners purified
T2 chain 1: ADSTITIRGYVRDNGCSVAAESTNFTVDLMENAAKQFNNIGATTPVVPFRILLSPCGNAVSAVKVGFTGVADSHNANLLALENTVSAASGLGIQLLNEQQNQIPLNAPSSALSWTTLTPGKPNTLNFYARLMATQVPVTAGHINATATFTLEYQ
T2 chain 2: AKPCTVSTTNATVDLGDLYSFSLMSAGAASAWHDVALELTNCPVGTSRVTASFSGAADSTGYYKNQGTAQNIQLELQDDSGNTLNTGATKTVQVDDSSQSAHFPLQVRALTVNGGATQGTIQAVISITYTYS

[7] = biological target: T3, FimI-FimAtHis (the two subunits of the ternary FimCHisIA complex) (E. coli W3110 | E. coli, UniProt P39264 20-179; P04128 37-182); assay: as above; settings: both partners purified
T3 construct: also called FimI-FimA part of FimCHisIA
T3 sequence (looked up) 1: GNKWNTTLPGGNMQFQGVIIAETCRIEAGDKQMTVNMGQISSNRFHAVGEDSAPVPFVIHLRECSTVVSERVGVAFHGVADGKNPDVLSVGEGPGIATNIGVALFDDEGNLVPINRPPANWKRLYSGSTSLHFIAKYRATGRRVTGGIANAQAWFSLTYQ
T3 sequence (looked up) 2: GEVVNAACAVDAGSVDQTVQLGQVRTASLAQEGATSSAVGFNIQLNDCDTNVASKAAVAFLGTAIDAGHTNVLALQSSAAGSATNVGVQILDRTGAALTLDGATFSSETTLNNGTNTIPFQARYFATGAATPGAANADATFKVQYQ

[8] = biological target: B4; assay: crystal structure; settings: both partners purified
[9] = biological target: B2; assay: crystal structure; FimCHis-FimI-FimAtHis complex, 2.8 Å, space group P6(1), two complexes in the asymmetric unit, crystals at 293 K from 0.8 M sodium formate, 100 mM Tris/acetic acid pH 8.5, 16% PEG 4000; settings: both partners purified
[10] = biological target: B2; assay: crystal structure; settings: both partners purified
[11] = biological target: B1; assay: refolding of the subunit with the chaperone and co-purification (cation exchange chromatography, SEC); denatured, disulfide-intact subunit diluted into buffer with an excess of FimC or FimCHis; complex purified by cation exchange and (not for FimCHisI) Superdex 75; FimCA eluted as a 1:1 complex; identity by ESI-MS; settings: both partners purified
[12] = biological target: B6; assay: reconstitution by donor strand exchange and co-purification (cation exchange chromatography, SEC); 2 μM FimCA with 10 μM FimCAt at pH 7.0 and 37 °C overnight; FimCAA purified on Resource S and Superdex 75; identity by ESI-MS; settings: both partners purified

## B1
[1]
  FimC-catalyzed folding of oxidized, unfolded FimI, rate constant by stopped-flow tryptophan fluorescence (pseudo-first-order fit, pH 8.0): 73000 M^−1 s^−1
[2]
  FimC-catalyzed folding of oxidized, unfolded FimA, rate constant by stopped-flow tryptophan fluorescence (pseudo-first-order fit, pH 8.0): 43000 M^−1 s^−1
[3]
  dissociation half-life: 26 ± 1 s

## B2
[4]
  dissociation half-life: 63 ± 5.7 s
[5]
  dissociation half-life: 1.58 ± 0.14 h
[6]
  dissociation half-life: 1.41 ± 0.12 h
[7]
  dissociation half-life: 3.85 ± 0.43 h

B3: FimAtHis (wild-type FimA missing residues 1-13 but with an N-terminal hexahistidine tag) (domain or fragment, E. coli, UniProt P04128 37-182, looked up)
chain: GEVVNAACAVDAGSVDQTVQLGQVRTASLAQEGATSSAVGFNIQLNDCDTNVASKAAVAFLGTAIDAGHTNVLALQSSAAGSATNVGVQILDRTGAALTLDGATFSSETTLNNGTNTIPFQARYFATGAATPGAANADATFKVQYQ
notes: also called FimAt (in the FimCHisIA structure)
[8]
  binding result: binds
[9]
  binding result: binds

## B4
[10]
  binding result: binds
[11]
  binding result: binds

B5: FimAt (residues 18-159 of FimA) (domain or fragment, E. coli, UniProt P04128 41-182, looked up)
chain: NAACAVDAGSVDQTVQLGQVRTASLAQEGATSSAVGFNIQLNDCDTNVASKAAVAFLGTAIDAGHTNVLALQSSAAGSATNVGVQILDRTGAALTLDGATFSSETTLNNGTNTIPFQARYFATGAATPGAANADATFKVQYQ
[12]
  binding result: binds
[11]
  binding result: binds

## B6
[11]
  binding result: binds
